PMC9253517 (The Journal of Experimental Medicine, 2022)
Changes are numbered by the printed parent chain.

B1: JN108 (antibody, V domains shown)
VH: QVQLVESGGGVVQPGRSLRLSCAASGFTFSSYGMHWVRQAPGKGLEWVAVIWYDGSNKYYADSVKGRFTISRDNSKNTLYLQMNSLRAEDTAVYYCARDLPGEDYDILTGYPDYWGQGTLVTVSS
VL: QSALTQPASVSGSLGQSITISCTGTSSDVGSYNLVSWYQQHPGKVPKLMIYEANKRASGVSDRFSGSKTDNTASLTISGLQAEDEADYYCCSYAGSRTHVIFGGGTKLTV
B2: JN111 (antibody, V domains shown)
VH: QVQLQESGPGLVRPSETLSLTCTVSGASITSYFWTWIRQAPGKGLEWIGYIYYSGSTNYNPSLKSRGTISVDTSKNQFSLKLSSVTAADTAVYYCARGMSDVVIVPAALSFGYDDAYYYYYYMDVWGKGTTVTVSS
VL: B1 VL
B3: JN141 (antibody, V domains shown)
VH: EVQLVESGGGLVQPGGSLRLSCAASGFTFSSYSMNWVRQAPGKGLEWVSYISSSSSTISYADSVKGRFTISRDNAKNSLYLQMNSLRAEDTAVYYCASGKGVGFDYWGQGTLVTVSS
VL: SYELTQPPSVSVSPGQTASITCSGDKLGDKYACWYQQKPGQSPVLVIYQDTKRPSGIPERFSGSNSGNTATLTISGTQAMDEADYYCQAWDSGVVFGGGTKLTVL
B4: JN133 (antibody, V domains shown)
VH: QLQLQESGPGLVKPSETLSLTCTVSGGSISSGSNYWGWIRQPPGKGLEWIGTIYYSGATYFSPSLKNRITISVDTSKNQFSLRLSSVIAADTAVYYCARLPFQNYYFYGMDVWGKGTTVTVSS
VL: SYELTQPPSVSVSPGQTARITCSGDVLPKQYAYWYQQKPGQAPVLVISKDSERPSGIPERFSGSSSGTTVTLTISGVQGEDEADYHCQSADSSGTWVFGGGTKLTVL
B5: JN229 (antibody, V domains shown)
VH: QVQLVQSGAEVKKPGSSVKVSCKASGGRFSSTAISWVRQAPGQGLEWMGGIIPIFGAPTDVQKFQGRVTITADQSTSTAYMELSNLRSEDTAVYYCATLGNYDFLTGNTFSYFDYWGQGTLVTVSS
VL: NFMLTQPHSVSESLGKTVTISCTRTSGSIASDYVQWYQQRPGSSPTTVIYENFQRPSGVPDRFSASVDSSSNSASLTISGLRAEDEADYYCQSHDRSDFLPVFGGGTQLTVL
B6: JN038 (antibody, V domains shown)
VH: B5 VH
VL: DIQLTQSPSSLSASVGDRVTITCRAGQSIGNYLNWYQQKPGKAPKVLIYGASSLQSGVPSRFSGSGSGTDFTLTISSLQPEDFASYYCQQSFTTPLTFGGGTKVEIK
B7: JN136 (antibody, V domains shown)
VH: QVQLVESGGGVVQPGRSLRLSCAASGFTFSSYAMHWVRQAPGKGLEWVAVISYDGSNKYYADSVKGRFTISRDNSKNTLYLQMNSLRAEDTAVYYCARELAWRGITIFGVVIYNPFDYWGQGTLVTVSS
VL: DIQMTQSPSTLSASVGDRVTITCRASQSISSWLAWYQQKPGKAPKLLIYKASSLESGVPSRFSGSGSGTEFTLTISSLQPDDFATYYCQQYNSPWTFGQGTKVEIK
B8: JN140 (antibody, V domains shown)
VH: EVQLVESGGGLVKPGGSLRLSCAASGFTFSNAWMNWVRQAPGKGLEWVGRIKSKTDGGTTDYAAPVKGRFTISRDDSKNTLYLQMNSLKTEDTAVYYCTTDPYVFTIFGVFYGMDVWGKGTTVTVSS
VL: QSALTQPASVSGSPGQSITISCTGTSSDVGSYNLVSWYQQHPGKAPKLMIYEVSKRPSGVSNRFSGSKSGNTASLTISGLQAEDEADYYCCSYAGSSTHHWVFGGGTKLTVL
B9: JN131 (antibody, V domains shown)
VH: EVQLVESGGGLVKPGGSLRLSCAASGFTFNSYSMNWVRQAPGKGLEWVSSISSSSNFIYYADSVKGRFTISRDNAKNSLYLQMNSLRAEDTAMYYCARDPGYRSSWFEVYYFDYWGPGTLVTVSS
VL: B8 VL with M49V, S54T, A94G, S97T, H99S, H100P, W101Y, G105T, L109V
B10: JN144 (antibody, V domains shown)
VH: QVQLVQSGPEVKKPGASVKVSCKASDYTFTSYDIIWVRQAPGQGLEWMGWISTHNGNTNYAQELQGRVTMTRETSTSTAHMELRSLRSDDTAVYYCARGPNRYLRLLEWSIPADWFFDLWGRGTLVTVSS
VL: EIVLTQSPGTLSLSPGDRATLSCRASQSVPSTSIAWYQQKPGQAPRLLFHGAASRAIGIPDRFSGSGSGTDFTLTISRLEPEDSAVYYCQHCGDSPPLLTFGPGTKVDIK
B11: JN142 (antibody, V domains shown)
VH: QVQLVQSGAEVKKPGASVKVSCKASGYTFTSYDINWVRQATGQGLEWMGWMNPNSGNTGYAQKFQGRVTMTRNTSISTAYMELSSLRSEDTAVYYCARVLAPYDYVWGSYRYDNWFDPWGQGTLVTVSS
VL: QSVLTQPPSVSAAPGQKVTISCSGSSSNIGNNYVSWYQQLPGTAPKLLIYDNNKRPSGIPDRFSGSKSGTSATLGITGLQTGDEADYYCGTWDSSLSALFGGGTKLTVL
B12: JN138 (antibody, V domains shown)
VH: QVQLVQSGTEVKKPGASVKVSCKASGYTFTSYYMHWVRQAPGQGLEWMGIINPSGGSTSYAQKFQGRVTMTRDTSTSTVYMELSSLRSEDTAVYYCARAELGSGSYPYYGMDVWGKGTTVTVSS
VL: SYELTQPPSVSVSPGQTARITCSGDALPKQYAYWYQQKPGQAPVLVIYKDSERPSGIPERFSGSSSGTTVTFTISGVQAEDEADYYCQSADSSGSYVVFGGGTKLTVL
B13: JN135 (antibody, V domains shown)
VH: QLQLQESGPGLVKPSETLSLTCTVSGGSISSSSYYWGWIRQPPGKGLEWIGSIYYSGSTYYNPSLKSRVTISVDTSKNQFSLKLSSVTAADTAVYYCARLIAATWTFGGVIFNWFDPWGQGTLVTVSS
VL: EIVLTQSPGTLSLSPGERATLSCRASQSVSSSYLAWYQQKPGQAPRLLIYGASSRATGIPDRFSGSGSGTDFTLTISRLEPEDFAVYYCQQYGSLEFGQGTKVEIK
B14: JN130 (antibody, V domains shown)
VH: QVQLQESGPGLVKPSQTLSLTCTVSGGSISSGDYYWSWIRQPPGKGLEWIGYIYYSGSTYYNPSLKSRVTISVDTSKNQFSLKLSSVTAADTAVYYCARVLRFYDNIWENYRLPRYFDYWGQGTLVTVSS
VL: QSALTQPRSVSGSPGQSVSISCTGTSSDVGGSEYVSWYQQHPGKAPKLMIYDVNQRPSGVPARFSGSKSGNTASLTISGLQAEDEADYYCCSYAGTYNFEVFGGGTKLSVL
B15: JN034 (antibody, V domains shown)
VH: QVQLQESGPGLVEPSQTLSLTCAVSGGSISGGDYYWSWIRQPPGKGLEWIGYIYYSGSTFYNPSLYSRLTISVDTSKNQFSLKLSSVTAADTAVYYCAREGPAIFKIPNGFDIWGQGTMVTVSS
VL: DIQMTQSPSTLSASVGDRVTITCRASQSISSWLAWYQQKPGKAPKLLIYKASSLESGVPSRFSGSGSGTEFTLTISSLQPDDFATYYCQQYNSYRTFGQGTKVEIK
B16: JN145 (antibody, V domains shown)
VH: QVQLVQSGAEVKKPGASVKVSCKASGYTFTSYYMHWVRQAPGQGLEWMGIINPSGGSTSYAQKFQGRVTMTRDTSTSTVYMELSSLRSEDTAVYYCARGESDDYVWGSYRYTNNWFDPWGQGTLVTVSS
VL: not shown
B17: JN106 (antibody, V domains shown)
VH: EVQLVESGGGLVQPGGSLRLSCAASGFTFSENWMSWVRQAPGKGLEWVGNIKQDASEKYFVDSVKGRFTISRDNAKNSLYLQMDSLRAEDTAVYFCARWGYSNSYYYIDCWGQGTLVTVSS
VL: QAVVTQEPSFSVSPGGTVTFTCGLTSGSVSASNHPSWYQQTPGQAPRTLMYGTNIRSSGVPDRFSGSILGNKAALTITGAQADDECDYYCVLYIGDGVWVFGGGTKLTVL
B18: JN139 (antibody, V domains shown)
VH: QVQLQESGPGLVKPSETLSLTCTVSGGSISNYFWSWIRQPPGQGLEWIGYIFYNGDTTYNPSLKSRVTISVDTSKNQFSLKLSSVTAADTAVYYCARDYYDSRGVFHGGFDSWGQGILVTVSS
VL: DIVMTQSPDSLAVSLGERATINCKSSQSVLYSSNSRNYLAWYQQRPGQPPKRLIYWASTRESGVPDRFSGSGSGTDFTLTISSLQAEDVAVYYCQQYYTNPPWTFGQGTKVEIK

Columns and labels:
[1] = target: SARS-CoV-2 Wuhan-Hu-1 NTD (SARS-CoV-2, UniProt P0DTC2); assay: cell-based or functional assay
[2] = target: SARS-CoV-2 Wuhan-Hu-1 NTD (SARS-CoV-2, UniProt P0DTC2 14-307); assay: cell-based or functional assay

Row | Binder | neutralisation IC50, WT (293TAce2) [1] | neutralisation IC50, WT (293TAce2) [2]
1 | B1 | > 1 µg/mL | –
2 | B2 | > 1 µg/mL | –
3 | B3 | – | > 1 µg/mL
4 | B4 | – | > 1 µg/mL
5 | B5 | – | > 1 µg/mL
6 | B6 | – | > 1 µg/mL
7 | B7 | – | > 1 µg/mL
8 | B8 | – | > 1 µg/mL
9 | B9 | – | > 1 µg/mL
10 | B10 | – | > 1 µg/mL
11 | B11 | – | > 1 µg/mL
12 | B12 | – | 0.401 µg/mL
13 | B13 | – | 0.947 µg/mL
14 | B14 | – | > 1 µg/mL
15 | B15 | – | > 1 µg/mL
16 | B16 | – | 0.688 µg/mL
17 | B17 | – | > 1 µg/mL
18 | B18 | – | > 1 µg/mL
